The text below walks through data of patent US20190100597A1.

The test addresses human CD20 on CD20-expressing cell lines (human) (UniProt P11836). Description: cell-based or functional assay.

rituximab-derived anti-human CD20 IgM+J (antibody), sequence (heavy): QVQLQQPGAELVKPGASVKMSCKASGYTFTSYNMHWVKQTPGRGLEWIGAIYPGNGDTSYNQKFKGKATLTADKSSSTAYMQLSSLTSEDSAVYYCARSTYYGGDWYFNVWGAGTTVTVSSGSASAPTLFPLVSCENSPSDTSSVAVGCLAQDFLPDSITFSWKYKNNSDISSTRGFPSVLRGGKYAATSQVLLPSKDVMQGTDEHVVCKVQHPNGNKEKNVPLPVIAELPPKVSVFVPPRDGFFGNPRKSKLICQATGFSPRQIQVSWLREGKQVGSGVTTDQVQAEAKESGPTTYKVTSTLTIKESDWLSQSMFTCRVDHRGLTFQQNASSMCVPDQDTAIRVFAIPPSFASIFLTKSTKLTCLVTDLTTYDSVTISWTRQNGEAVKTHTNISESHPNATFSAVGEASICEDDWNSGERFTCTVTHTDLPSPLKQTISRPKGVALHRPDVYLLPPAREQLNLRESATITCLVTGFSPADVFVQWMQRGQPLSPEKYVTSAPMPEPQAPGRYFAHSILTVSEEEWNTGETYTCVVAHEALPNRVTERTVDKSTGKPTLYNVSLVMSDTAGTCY
rituximab-derived anti-human CD20 IgM+J (antibody), sequence (light): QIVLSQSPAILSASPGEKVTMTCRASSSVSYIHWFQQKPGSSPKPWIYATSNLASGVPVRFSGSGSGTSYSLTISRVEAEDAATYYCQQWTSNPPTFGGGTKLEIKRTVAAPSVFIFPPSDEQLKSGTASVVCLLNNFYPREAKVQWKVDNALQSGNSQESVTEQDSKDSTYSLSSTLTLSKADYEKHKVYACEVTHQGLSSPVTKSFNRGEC
rituximab-derived anti-human CD20 IgM+J (antibody), sequence (chain): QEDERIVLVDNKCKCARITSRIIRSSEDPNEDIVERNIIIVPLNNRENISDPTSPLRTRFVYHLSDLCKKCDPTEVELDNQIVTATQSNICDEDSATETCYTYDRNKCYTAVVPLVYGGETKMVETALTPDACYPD
human CD20 on CD20-expressing cell lines (human), sequence (P11836 whole entry): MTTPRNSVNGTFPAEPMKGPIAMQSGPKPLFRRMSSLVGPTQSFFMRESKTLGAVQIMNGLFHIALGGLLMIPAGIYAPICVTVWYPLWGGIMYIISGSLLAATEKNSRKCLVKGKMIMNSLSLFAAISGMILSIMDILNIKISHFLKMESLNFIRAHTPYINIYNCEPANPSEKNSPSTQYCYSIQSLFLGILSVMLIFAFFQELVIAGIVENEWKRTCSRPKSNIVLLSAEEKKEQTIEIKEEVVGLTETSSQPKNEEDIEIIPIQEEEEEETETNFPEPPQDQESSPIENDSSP

Consider “rituximab-derived anti-human CD20 IgM+J (antibody)”, for which the CDC (IC50) on Raji cells worked out at 2 µg/mL, the CDC EC50 on DOHH-2 cells came to 0.09 nM and the CDC EC50 on Z-138 cells worked out at 0.41 nM.
